For the assay, the target named is protein G_1. Description: SEC-MALS. On the technique in general: Size exclusion chromatography separates by hydrodynamic size, large species first.

For protein G_1, the stoichiometry N (usually the number of molecules, sites or subunits per partner or assembly) was 2.
